Assay results: paper PMC4046987

System: HfqBc (Hfq6) (Burkholderia cenocepacia J2315)
Experiment: EMSA
Settings: no MtvR; complexes seen only at 500 nM HfqBc or higher; excess yeast tRNA; 20 mM Tris-Cl pH 8.0, 1 mM DTT, 1 mM MgCl2, 10 mM KCl, 10 mM KH2PO4, excess yeast tRNA, 30 min at 25 C; native 8% PAGE with 10% glycerol

Question: For hfqEc full mRNA (5'-UTR + CDS), which Kd is on record?
Answer: 11.6 µM
